T1: recombinant RNA-DEPENDENT RNA POLYMERASE 2 (RDR2), wild type, with N-terminal V5 epitope and 6xHis tags (A. thaliana, UniProt O82504 1-1133)
T1 sequence (looked up): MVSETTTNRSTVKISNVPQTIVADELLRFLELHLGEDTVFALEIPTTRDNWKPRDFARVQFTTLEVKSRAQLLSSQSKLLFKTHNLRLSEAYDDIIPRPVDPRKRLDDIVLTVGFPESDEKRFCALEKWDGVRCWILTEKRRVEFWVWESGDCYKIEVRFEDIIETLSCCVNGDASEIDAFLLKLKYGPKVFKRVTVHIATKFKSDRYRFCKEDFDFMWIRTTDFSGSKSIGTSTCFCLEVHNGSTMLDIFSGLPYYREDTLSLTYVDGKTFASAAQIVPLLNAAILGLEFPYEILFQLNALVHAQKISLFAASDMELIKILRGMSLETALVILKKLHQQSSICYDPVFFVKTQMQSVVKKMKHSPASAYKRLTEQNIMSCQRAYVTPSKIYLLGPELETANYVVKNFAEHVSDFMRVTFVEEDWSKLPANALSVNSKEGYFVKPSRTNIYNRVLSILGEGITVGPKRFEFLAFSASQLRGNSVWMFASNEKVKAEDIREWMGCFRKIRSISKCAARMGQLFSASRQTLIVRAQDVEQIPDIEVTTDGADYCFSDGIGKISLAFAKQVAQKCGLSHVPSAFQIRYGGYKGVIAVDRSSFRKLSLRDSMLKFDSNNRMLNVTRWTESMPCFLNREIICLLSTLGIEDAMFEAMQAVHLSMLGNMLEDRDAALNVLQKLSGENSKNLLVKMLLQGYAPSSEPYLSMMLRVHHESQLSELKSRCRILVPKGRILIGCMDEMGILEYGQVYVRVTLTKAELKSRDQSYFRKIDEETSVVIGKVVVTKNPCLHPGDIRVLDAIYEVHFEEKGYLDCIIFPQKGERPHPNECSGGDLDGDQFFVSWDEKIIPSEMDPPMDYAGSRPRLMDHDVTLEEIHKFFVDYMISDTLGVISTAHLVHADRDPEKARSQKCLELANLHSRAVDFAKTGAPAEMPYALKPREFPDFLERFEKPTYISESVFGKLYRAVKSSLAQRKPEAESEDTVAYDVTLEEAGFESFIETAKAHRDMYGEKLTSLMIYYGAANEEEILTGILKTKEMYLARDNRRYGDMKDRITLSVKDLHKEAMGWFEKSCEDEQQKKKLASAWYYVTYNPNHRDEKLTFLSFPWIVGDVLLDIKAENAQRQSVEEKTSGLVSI

B1: recombinant NRPD1_(1–300) with His and FLAG tags, made in E. coli (domain or fragment, A. thaliana, UniProt Q9LQ02 1-300, looked up)
chain: MEDDCEELQVPVGTLTSIGFSISNNNDRDKMSVLEVEAPNQVTDSRLGLPNPDSVCRTCGSKDRKVCEGHFGVINFAYSIINPYFLKEVAALLNKICPGCKYIRKKQFQITEDQPERCRYCTLNTGYPLMKFRVTTKEVFRRSGIVVEVNEESLMKLKKRGVLTLPPDYWSFLPQDSNIDESCLKPTRRIITHAQVYALLLGIDQRLIKKDIPMFNSLGLTSFPVTPNGYRVTEIVHQFNGARLIFDERTRIYKKLVGFEGNTLELSSRVMECMQYSRLFSETVSSSKDSANPYQKKSDT
notes: NRPD1, A. thaliana, amino acids 1-300 of 1,453; More in SI Appendix, Methods; also called NRPD1_(1–300)-FLAG; FLAG-tagged NRPD1_(1–300); source: E. coli (pET28 vector), purified (nickel-NTA by the methods; by its C-terminal FLAG tag by the results); not shown: FLAG, C-terminal, kept
B2: recombinant RDR2_(771–970) with His and HA tags, made in E. coli (domain or fragment, A. thaliana, UniProt O82504 771-970, looked up)
chain: ETSVVIGKVVVTKNPCLHPGDIRVLDAIYEVHFEEKGYLDCIIFPQKGERPHPNECSGGDLDGDQFFVSWDEKIIPSEMDPPMDYAGSRPRLMDHDVTLEEIHKFFVDYMISDTLGVISTAHLVHADRDPEKARSQKCLELANLHSRAVDFAKTGAPAEMPYALKPREFPDFLERFEKPTYISESVFGKLYRAVKSSLAQ
notes: The methods give the C-terminal limit as 971, the results and legends as 970; More in SI Appendix, Methods; source: E. coli (pET28 vector), purified (nickel-NTA by the methods; anti-HA resin by the results)
B3: NRPD1 peptide 24 of the NRPD1_(1–300) peptide array (peptide, UniProt Q9LQ02 231-245, looked up)
peptide: RVTEIVHQFNGARLI
notes: NRPD1, A. thaliana; 15-mer of the array; limits worked out from the design; Peptides were 'typically' 15 amino acids long; source: synthetic peptide (Genscript)
B4: NRPD1 peptide 13 of the NRPD1_(1–300) peptide array (peptide, UniProt Q9LQ02 121-135, looked up)
peptide: CTLNTGYPLMKFRVT
notes: NRPD1, A. thaliana; 15-mer of the array; limits worked out from the design; holds K131; Peptides were 'typically' 15 amino acids long; source: synthetic peptide (Genscript)
B5: NRPD1 peptide 9 of the NRPD1_(1–300) peptide array (peptide, UniProt Q9LQ02 81-95, looked up)
peptide: INPYFLKEVAALLNK
notes: NRPD1, A. thaliana; 15-mer of the array of 30 peptides over 1-300 that overlap by 5; limits worked out from the design; Peptides were 'typically' 15 amino acids long; source: synthetic peptide (Genscript)
B6: NRPD1 peptide 25 of the NRPD1_(1–300) peptide array (peptide, UniProt Q9LQ02 241-255, looked up)
peptide: GARLIFDERTRIYKK
notes: NRPD1, A. thaliana; 15-mer of the array; limits worked out from the design; holds K254 and K255; Peptides were 'typically' 15 amino acids long; source: synthetic peptide (Genscript)
B7: NRPD1 peptide 26 of the NRPD1_(1–300) peptide array (peptide, UniProt Q9LQ02 251-265, looked up)
peptide: RIYKKLVGFEGNTLE
notes: as for B6
B8: NRPD1 peptide 10 of the NRPD1_(1–300) peptide array (peptide, UniProt Q9LQ02 91-105, looked up)
peptide: ALLNKICPGCKYIRK
notes: NRPD1, A. thaliana; 15-mer of the array; limits worked out from the design; holds a CxxC motif; Peptides were 'typically' 15 amino acids long; source: synthetic peptide (Genscript)
B9: NRPD1 peptide 12 of the NRPD1_(1–300) peptide array (peptide, UniProt Q9LQ02 111-125, looked up)
peptide: TEDQPERCRYCTLNT
notes: as for B8
B10: RDR2 peptide 10 of the RDR2_(771–970) peptide array (peptide, UniProt O82504 861-875, looked up)
peptide: RLMDHDVTLEEIHKF
notes: RDR2, A. thaliana; 15-mer of the array; limits worked out from the design; holds K874; Peptides were 'typically' 15 amino acids long; source: synthetic peptide (Genscript)
B11: RDR2 peptide 11 of the RDR2_(771–970) peptide array (peptide, UniProt O82504 871-885, looked up)
peptide: EIHKFFVDYMISDTL
notes: as for B10
B12: RDR2 peptide 12 of the RDR2_(771–970) peptide array (peptide, UniProt O82504 881-895, looked up)
peptide: ISDTLGVISTAHLVH
notes: RDR2, A. thaliana; 15-mer of the array; limits worked out from the design; Peptides were 'typically' 15 amino acids long; source: synthetic peptide (Genscript)

These binders were tested against T1, recombinant RNA-DEPENDENT RNA … (assay: co-IP; purified recombinant proteins, 0.25 µM each, 30 min, room temperature, 50 mM Hepes-KOH pH 7.5, 150 mM NaCl; IP with resin against the tag of one or the other partner (anti-FLAG, anti-V5 or anti-HA); immunoblot). Conditions: both partners purified.
B1: binds.

Each binder was assayed against B1 in the same assay as above. Conditions: both partners purified.
B2: binds.

These binders were tested against B2 (assay: peptide or protein array; synthetic peptides (10 ng) dot-blotted onto nitrocellulose, probed with about 200 ng NRPD1_(1–300)-FLAG or RDR2_(771–970)-HA in 8 mL 50 mM Hepes-KOH pH 7.5, 100 mM NaCl, room temperature, 1 h; anti-FLAG-HRP or anti-HA-HRP, chemiluminescence). Conditions: both partners purified.
B3: binds. B4: binds. B5: binds. B6: binds. B7: binds. B8: binds. B9: binds.

The binders below were run against B1 in the same assay as above. Conditions: both partners purified.
B10: binds. B11: binds. B12: binds.
